# According to US20190389933A1 (published 2019):
# B1: IL2Rbeta (receptor)
# chain: AVNGTSQFTCFYNSRANISCVWSQDGALQDTSCQVHAWPDRRRWNQTCELLPVSQASWACNLILGAPDSQKLTTVDIVTLRVLCREGVRWRVMAIQDFKPFENLRLMAPISLQVVHVETHRCNISWEISQASHYFERHLEFEARTLSPGHTWEEAPLLTLKQKQEWICLETLTPDTQYEFQVRVKPLQGEFTTWSPWSQPLAFRTKPAALGKD
# B2: XENP22553, humanized variant 1C11[PD-1]_H3L3 of anti-PD-1 clone 1C11 (antibody, V domains shown)
# VH: QIQLVQSGSELKKPGASVKVSCKASGYTFTHYGMNWVRQAPGQGLEWMGWINTYTGEPTYADGFTGRFVFSLDTSVSTAYLQISSLKAEDTAVYFCARDYYGSSPYWGQGTLVTVSS
# VL: DVLMTQSPDSLAVSLGERATINCKSSQSIVHSNGNTYLEWYQQKPGQSPKLLIYKVSNRFSGVPDRFSGSGSGTDFTLTISSLQAEDVAVYYCFQGSHVPNTFGGGTKVEIKR
# How the values were obtained:
# 21480B = assay: Octet
# histidine-tagged PD-1 = histidine-tagged PD-1 (UniProt Q15116 25-167); assay: Octet
# Chain of histidine-tagged PD-1 (Q15116 25-167): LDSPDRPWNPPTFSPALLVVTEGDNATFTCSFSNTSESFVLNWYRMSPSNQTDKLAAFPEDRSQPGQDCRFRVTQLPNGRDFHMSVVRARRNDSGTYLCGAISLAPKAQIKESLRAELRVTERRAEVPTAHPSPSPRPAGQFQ
Binder,Kd (21480B) [nM],Kd (histidine-tagged PD-1) [nM]
B1,8.1,–
B2,–,19.1
